Numbering of substitutions follows the chain as printed. Like-named read-outs stand apart in the source and are kept apart here.

Here are results for six molecules from patent US20220135687A1 (NANJING LEGEND BIOTECH, published 2022).

Experiment [1] has as its target T1, human PD-L1 expressed on CHO-K1 cells (Genscript, Cat #M00543) (human, UniProt Q9NZQ7 19-290).
T1 construct: also called PD-L1 cell line
Put plainly: FACS, CHO-K1/human PD-L1 cells. As to the method: (§1) PD-L1 stable cell line binding activity assessment of 12 mouse mAbs was carried out using FACS. CHO-K1 cells expressing human PD-L1 (Genscript, Cat #M00543) were dissociated from adherent culture flasks and mixed with varying concentrations of antibodies. The antibody and cells were incubated for 30 minutes at room temperature, washed three times with FACS buffer (PBS containing 1% BSA). PE-labeled goat anti-mouse IgG (minimal x-reactivity) secondary antibody (BioLegend, Cat #405307) was added and incubated at room temperature for 15 minutes. Cells were washed again with FACS buffer and analyzed by FACSCalibur (BD Bioscience, San Jose, Calif.) and Flowjo software. Data were analyzed with Prism 6 (GraphPad Software, San Diego, Calif.) using non-linear regression, and EC₅₀ values were calculated (FIGS. 2A-2L and Table 3).

For experiment [2], the target named is T1, human PD-L1 expressed on CHO-K1 cells …. Put plainly: cell-based or functional assay.
For experiment [3] the target is unchanged. Put plainly: FACS competition vs biotin-PD-1-Fc on CHO-K1/human PD-L1 cells. As to the method:
A series of diluted mouse mAbs (concentration starting from 900 nM, 3 fold dilution, 50 μl per well) were added afterwards. The mixture was incubated at 4° C. for 30 minutes, washed twice with wash buffer, followed by the addition of PEcy5/streptavidin (1 μg/ml, 150 μl/well). The plates were again incubated at 4° C. for 30 minutes before the cells in each well were analyzed by FACSCalibur (BD Bioscience, San Jose, Calif.) and Flowjo software.

Experiment [4] has as its target cynomolgus PD-L1 Fc-fusion protein (cynomolgus, UniProt G7PSE7 19-238). Put plainly: SPR, cyno PD-L1-Fc immobilised, antibody analyte.
Experiment [5] has as its target T1, human PD-L1 expressed on CHO-K1 cells …. Description: cell-based or functional assay. The source holds these as a separate data set.
Experiment [6] has as its target T2, His-tagged PD-L1 ECD protein (ACROBiosystems) (human, UniProt Q9NZQ7 19-238).
T2 construct: Bought protein; also called PD-L1-His; PD-L1/His; not shown: His tag
Put plainly: SPR, IgG captured by anti-human Fc, PD-L1-His analyte. On the procedure: (§2) Briefly, capturing antibody (anti-mouse Fc antibody for the affinity measurement of mouse mAbs, or anti-human Fc antibody for the affinity measurement of chimeric and humanized mAbs, GE healthcare) was immobilized on a Biacore™ CM5 chip to approximately 7,000 RU using EDC-activated amine coupling chemistry. Antibody of interest (5 μg/ml) was captured for 60 seconds onto the sensorchip surface. His-tagged PD-L1 ECD protein (ACROBiosystems) was flowed over the sensorchip surface at a series concentrations. Flow rate was 30 μl/min in all experiments. Association and dissociation phases were 5 and 15 min, respectively. The chip was regenerated using Glycine/HCl pH 1.5. Captured antibody and antigen were removed between each cycle using 50 mM HCl in order to ensure a fresh binding surface for each concentration of antigen. The resulting sensorgrams were fit globally using a 1:1 binding model in order to calculate on- and off-rates (ka and kd, respectively), as well as affinities (KD).

The target in experiment [7] is T2, His-tagged PD-L1 ECD protein …. Put plainly: SPR, supernatant IgG captured, PD-L1-His analyte.
For experiment [8] the target is unchanged. Put plainly: SPR, supernatant IgG captured, PD-L1-His analyte. This is another data set of the same source.
The target in experiment [9] is T3, cynomolgus PD-L1 overexpressing stable cell line (cynomolgus, UniProt G7PSE7 19-290).
T3 construct: also called cynomolgus PD-L1 overexpressing cell line
Put plainly: FACS, cynomolgus PD-L1 cell line.

Experiment [10] has as its target T1, human PD-L1 expressed on CHO-K1 cells …. Description: FACS, CHO-K1/human PD-L1 cells. On the procedure:
as §1
Human and cynomolgus PD-L1 stable cell line binding activity assessment of chimeric and humanized mAbs was carried out using FACS as described above (FIGS. 9A-9L and FIGS. 10A-10L and Tables 13 and 14).
The source holds these as a separate data set.

For experiment [11], the target named is T2, His-tagged PD-L1 ECD protein …. Put plainly: SPR, mAb captured via anti-Fc, PD-L1-His analyte. As to the method:
as §2

Experiment [12] addresses T1, human PD-L1 expressed on CHO-K1 cells …. Put plainly: FACS on CHO-K1 cells expressing human PD-L1, PE-labeled goat anti-mouse IgG secondary antibody. As to the method:
as §1

T1 sequence (Q9NZQ7 19-290, one chain of several): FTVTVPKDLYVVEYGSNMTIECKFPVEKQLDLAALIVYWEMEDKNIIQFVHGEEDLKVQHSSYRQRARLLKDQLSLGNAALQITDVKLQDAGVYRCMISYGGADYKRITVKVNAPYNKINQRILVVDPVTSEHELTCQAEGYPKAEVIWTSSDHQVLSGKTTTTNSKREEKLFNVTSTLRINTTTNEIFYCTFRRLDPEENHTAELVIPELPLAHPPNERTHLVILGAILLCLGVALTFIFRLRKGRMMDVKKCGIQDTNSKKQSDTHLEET
T2 sequence (Q9NZQ7 19-238): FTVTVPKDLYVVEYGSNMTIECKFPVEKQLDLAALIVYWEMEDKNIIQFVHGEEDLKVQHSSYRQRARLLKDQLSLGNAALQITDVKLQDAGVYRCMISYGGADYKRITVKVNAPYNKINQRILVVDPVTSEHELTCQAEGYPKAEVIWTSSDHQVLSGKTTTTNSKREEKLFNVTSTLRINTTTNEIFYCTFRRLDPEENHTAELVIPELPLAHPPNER
Chain of cynomolgus PD-L1 Fc-fusion protein (G7PSE7 entry or part of it limits assumed): as the sequence (Q9NZQ7 19-238) above, with A33T, A34S, S62N, R68Q, Q82R, F173L, T185A, T192I, H215L counted along it
T3 sequence (G7PSE7 entry or part of it limits assumed): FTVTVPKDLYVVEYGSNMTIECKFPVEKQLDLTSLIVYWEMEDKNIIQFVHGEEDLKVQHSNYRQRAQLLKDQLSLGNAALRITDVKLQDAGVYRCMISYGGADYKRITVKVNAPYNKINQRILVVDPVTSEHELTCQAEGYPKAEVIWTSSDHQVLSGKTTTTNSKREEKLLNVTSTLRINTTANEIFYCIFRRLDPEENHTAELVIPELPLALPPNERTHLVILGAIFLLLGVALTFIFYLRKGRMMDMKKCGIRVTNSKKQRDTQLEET

B1: 51F3D2G4 (antibody, V domains shown)
VH: QVQLQQSGAELARPGASVRLSCKASGYIFTGYGISWVKQRTGQGLEWIGEIFPRTANTYFNEKFKGKATLTADKSSSTAYMELRSLTSEDSAVYFCARDYDPYYALDYWGQGTSVTVSS
VL: DIVMTQSHKFMSTSVGDRVTITCKASQDVSTAVDWYQQKPGQSPKLLIYSASYRYTGVPDRFTGSGSGTAFTFTISSEQAEDLAVYYCQQHYSVPFTFGGGTKLEIK
notes: Mouse mAb from hybridoma culture
Turning to B1, in [1], the EC50 is 2.13 nM and the “Top (best-fit value)” value was found to be 1720. Moreover, the “EC50, PD-L1 cell-based luciferase reporter assay” value in experiment [2] was 8.69 nM. Besides, in [3], the IC50 came to 1.23 nM.

B2: 53C1_chimeric (antibody, human IgG1, kappa, N297A, V domains shown)
VH: QVQLQQSGNELARPGASVRLSCKASGYIFTGYGITWVRQRPGQGLEWIGEIFPRRVNTYYSEKFKGRATLTADISSSTAYMELRSLTSEDSAVYFCARDYDPYFALDYWGQGTSVTVSS
VL: DIVMTQSHKFMSTSVGDRVSITCKASQDVSTAVDWYQQKPGQSPKLLIYSASYRYTGVPDRFTGSGSGTAFTFTISGEQAEDLAVYYCQQHYSIPFTFGGGTKLEIKR
notes: Human IgG1 with effector-less Fc mutations, human kappa; also called chimeric 53C1F3D4
With B2, the Kd turned out to be 1.1 nM in experiment [4], 0.78 nM in experiment [6], 0.75 nM in [7] and 0.72 nM in experiment [8]. Moreover, the koff in experiment [4] came to 9.5e-05 s⁻¹; in experiment [6], 0.00019 s⁻¹; in [7], 0.00019 s⁻¹; in experiment [8] it was 0.00018 s⁻¹. For the same molecule, the kon in experiment [4] turned out to be 87000 M⁻¹ s⁻¹; in [6], 240000 M⁻¹ s⁻¹; in experiment [7] it was 260000 M⁻¹ s⁻¹; in experiment [8] it was 250000 M⁻¹ s⁻¹. Moreover, in experiment [5], the “EC50, PD-L1 cell-based luciferase reporter assay” value stood at 1.98 nM. The molecule further registered a 50% inhibitory concentration (IC50) in experiment [3] of 0.59 nM. Moreover, the EC50 in experiment [9] amounted to 2.88 nM; in experiment [10], 1.79 nM. The “Top (best-fit value)” value was 8490 in [9] and 6230 in experiment [10].

B3: 53C1F3D4 (antibody, V domains shown)
VH: B2 VH
VL: B1 VL with T20S, S77G, V94I
notes: Mouse mAb from hybridoma culture; also called mouse 53C1F3D4
As to B3, in experiment [1], the EC50 was 3.73 nM and the “Top (best-fit value)” value was determined as 2020. Further, in [2], the “EC50, PD-L1 cell-based luciferase reporter assay” value is 4.45 nM. Further, in experiment [3], the IC50 came to 1.27 nM. In [11], the Kd turned out to be 0.61 nM, the off-rate constant (koff) amounted to 0.00019 s⁻¹ and the kon came to 320000 M⁻¹ s⁻¹.

B4: 29A8H8C7 (antibody, V domains shown)
VH: DVQLQGSGPGLVKPSQSLSLTCTVTGYSITSDFAWDWIRQFPGNKLEWMGHIRFSGTTSYNPSLKSRISITRDTSKNQFFLQLNSVTSEDTATYYCARSTLITKGFFDYWGQGTTLTVSS
VL: DIVMTQSHKFMSTSVGGRVSITCKASQDVSPAVAWYQQKPGQSPKLLIYWASTRHTGVPDRFTGSGSGTDFTLTISSVQTEDLALYYCQQHYSTPWTFGGGTKLEIK
notes: Mouse mAb from hybridoma culture; also called mouse 29A8H8C7
Take B4: in [1], the EC50 came to 3.06 nM and the “Top (best-fit value)” value worked out at 2440. The “EC50, PD-L1 cell-based luciferase reporter assay” value in experiment [2] is 3.61 nM. Also, the IC50 in experiment [3] came out at 1.41 nM. In [11], this molecule yielded a Kd of 0.28 nM, a koff of 0.00017 s⁻¹ and a kon of 620000 M⁻¹ s⁻¹.

B5: 27D3D3G2 (antibody, V domains shown)
VH: QVLLQQSGPELVKPGASVRISCKASGYTFTSYYMHWVKQRPGQGLEWIGWIYPGNVNTKYNEKFKGKATLTADKSSSTAYMQLSSLTSEDSAVYFCASYGNYGGWYFDVWGAGTTVTVSS
VL: DIQMTQTTSSLSASLGDRVTISCRASQDIGNYLNWYQQKPDGTVKLLIYYTSRLHSGVPSRFSGSGSGTDYSLTISNLEQEDIATYFCQQGDTFPWTFGGGTKLEIK
notes: as for B1
In the case of B5, in experiment [1], it took 4.19 nM to reach a half-maximal effect (EC50) and the “Top (best-fit value)” value amounted to 1770. In experiment [2], the “EC50, PD-L1 cell-based luciferase reporter assay” value is 3.62 nM. For the same molecule, in experiment [3], the IC50 came out at 1.28 nM.

B6: 18B7F4G8 (antibody, V domains shown)
VH: DVQLQESGPDLVKPSQSLSLTCTVTGYSITSGYTWHWIRQFPGNKLEWMGYIHYSGSTKYNPSLKSRFSITRDTSKNQFFLQLNSMTAEDTATYYCARNSLFASWGHGTLVTVSA
VL: DIVLTQSPASLAVSLGQRATISCRASESVDTYGDSFMHWFQQKPGQPPKLLIYRASNLESGIPARFSGSGSRTDFTLTINPVEADDVATYYCQQSNEAPYTFGGGTKLEIK
notes: as for B1
Regarding B6, in experiment [1], a half-maximal response (EC50) required 0.62 nM and the “Top (best-fit value)” value worked out at 399. Besides, in experiment [2], the “EC50, PD-L1 cell-based luciferase reporter assay” value came out at 2.27 nM. Further, in experiment [12], the “EC50 (read off the curve)” value was around 3 nM.
